In series [1] the target is Rhodiola rosea Rr4HPAAS, 4-hydroxyphenylacetaldehyde synthase, GenBank MF674522, SEQ ID NO: 2 (Rhodiola rosea, UniProt A0A2I6B3P0). As to the kind of experiment: Michaelis-Menten kinetics of Rr4HPAAS against aromatic amino acids. As to conditions: compared with L-tyrosine and L-DOPA; pH 8.0, 30° C. The protocol:
(§1) The AAS enzyme assays were performed in 100 μL of reaction buffer (50 mM Tris, pH 8.0) containing 50 μg of recombinant enzyme, 200 μM PLP. Kinetic reactions were incubated with a range of amino acid substrate concentrations (1 μM-4 mM) at 30° C. for 30 minutes prior to quenching with 100 μL of 0.8 M formic acid. […] Rr4HPAAS reactions were also analyzed by LC-MS-UV. 50 μL of reaction mixture was analyzed by an Ultimate 3000 liquid chromatography system (Dionex), equipped with a 150 mm C18 Column (Kinetex 2.6 μm silica core shell C18 100 Å pore, Phenomenex) and coupled to an UltiMate 3000 diode-array detector (DAD) in-line UV-Vis spectrophotometer (Dionex) and a TSQ Quantum Access MAX triple-quadrupole mass spectrometer (Thermo-Scientific). To resolve chromatographically L-tyrosine, tyrosol and 4-HPAAA, compounds were separated through the use of an isocratic mobile phase containing 50 mM monopotassium phosphate pH 4.6, 15% (v/v) acetonitrile and 0.5 mM octyl sulfate. Rr4HPAAS product formation was quantified using the UV absorbance at 280 nm and compared to analytical standards using the diode array detector wavelength at a wavelength range of 200-500 nm and chromatographic retention time. […]
(§2) Kinetic constants such as Km and Vmax were determined by fitting raw data to the Michaelis-Menten equation using the nonlinear regression function in Prism (version 7.0).

Substrate in series [2]: OCCc1ccc(O)cc1
As to the kind of experiment: Michaelis-Menten kinetics of RrT8GT (RrUGT33), tyrosol 8-O-glucosylation. The series is classed as biochemical, Rhodiola rosea. As to conditions: other: substrate tyrosol (0.01-5.0 mM), 10 mM UDP-glucose, pH 8.0, 30° C., 10 min. The protocol: Kinetic characterization of UGTs was conducted in 200 μL reaction buffer (50 mM Tris, pH 8.0) containing 10 mM UDP-glucose and various concentrations of tyrosol (0.01-5.0 mM). Reactions were started with addition of recombinant enzyme, incubated at 30° C. for 10 minutes, and quenched by addition of 200 μL of methanol. The reaction mixed was then analyzed by LC-HRAR-MS as described above. Compounds were separated by reversed-phase chromatography with a ramp gradient of solvent A (0.1% formic acid in H2O) and solvent B (0.1% formic acid in acetonitrile): 5% solvent B for 0.5 min, 5-55% solvent B over 6 min, 55-5% solvent B over 1.0 min and a final equilibration of 5% solvent B for 1 min with a flow rate at 0.6 mL/min. Product formation was measured using select ion monitoring in positive mode for a centroid center mass of 318.15. Product mass was calculated by comparison to a standard curve of the NMR verified plant purified salidroside and icariside D2 samples.
as §2

Series [3] deals with N. benthamiana leaves. As to the kind of experiment: Agrobacterium-mediated transient expression in leaves with LC-HRAM-MS metabolic profiling. To be noted: leaves harvested 5 days after infiltration. The series is classed as in vivo. On the procedure: To further evaluate the biochemical function of R. rosea tyrosol glycoside biosynthetic genes in planta, these genes were expressed in N. benthamiana leaves using the Agrobacterium tumefaciens-mediated transient protein production technique (Sainsbury et al., 2009) followed by LC-HRAM-MS-based metabolic profiling. […] PsTyDC and the previously reported Petroselinum crispum 4HPAAS (Pc4HPAAS, GenBank: AAA33861) (Torrens-Spence et al., 2012) were also tested in parallel as controls. […] The chemical identity of these compounds was confirmed by both LC-HRAM-MS and nuclear magnetic resonance (NMR) analyses (FIGS. 20-26). […] Next, the in planta regio-specificity of RrT8GT and RrT4GT in tyrosol glycosylation was evaluated. […] Meanwhile, the accumulation of free tyrosol was reduced in these plants compared to those with Rr4HPAAS expression alone (FIG. 27). […]
Crown tissue and root tissue of a three-month-old R. rosea plant was harvested and stored at −80° C. before subsequent metabolomic analysis. […] The extracts were then analyzed by LC-HRAM-MS. […]

Substrate in series [4]: N[C@@H](Cc1ccc(O)cc1)C(=O)O
As to the kind of experiment: purified protein, by the assay type. To be noted: other: amino acid substrate 1 μM-4 mM, 200 μM PLP, pH 8.0, 30° C., 30 min, peroxide assay.
Protocol: The AAS enzyme assays were performed in 100 μL of reaction buffer (50 mM Tris, pH 8.0) containing 50 μg of recombinant enzyme, 200 μM PLP. Kinetic reactions were incubated with a range of amino acid substrate concentrations (1 μM-4 mM) at 30° C. for 30 minutes prior to quenching with 100 μL of 0.8 M formic acid. […] Rr4HPAAS reactions were also analyzed by LC-MS-UV. 50 μL of reaction mixture was analyzed by an Ultimate 3000 liquid chromatography system (Dionex), equipped with a 150 mm C18 Column (Kinetex 2.6 μm silica core shell C18 100 Å pore, Phenomenex) and coupled to an UltiMate 3000 diode-array detector (DAD) in-line UV-Vis spectrophotometer (Dionex) and a TSQ Quantum Access MAX triple-quadrupole mass spectrometer (Thermo-Scientific). To resolve chromatographically L-tyrosine, tyrosol and 4-HPAAA, compounds were separated through the use of an isocratic mobile phase containing 50 mM monopotassium phosphate pH 4.6, 15% (v/v) acetonitrile and 0.5 mM octyl sulfate. Rr4HPAAS product formation was quantified using the UV absorbance at 280 nm and compared to analytical standards using the diode array detector wavelength at a wavelength range of 200-500 nm and chromatographic retention time. The reduction of aldehyde products was achieved by addition of saturated sodium borohydride in ethanol or by addition of 10 mM NADPH and 10 g of Rr4HPAR1 or Rr4HPAR2.

Substrate in series [5]: N[C@@H](Cc1ccc(O)c(O)c1)C(=O)O
As to the kind of experiment: purified protein, by the assay type. As to conditions: other: amino acid substrate 1 μM-4 mM, 200 μM PLP, pH 8.0, 30° C., 30 min, peroxide assay.

Series [6] in a line: Hydrogen peroxide production from L-tyrosine by recombinant AAS candidates. The class given is biochemical. To be noted: L-tyrosine as substrate. The protocol:
FIG. 12 is a graph showing relative hydrogen peroxide production for the Rr4HPAAS, the RrAAS and the PsTyDC. 100 μL reaction mixtures containing 50 μg of recombinant enzyme, 2 mM L-tyrosine, 50 mM Tris pH 8.0 and 200 μM PLP were incubated at 30° C. for various time points prior to quenching with 100 μL of 0.8 M formic acid. Hydrogen peroxide levels of quenched reaction mixtures were subsequently analyzed using Pierce Quantitative Peroxide Assay Kit against a standard curve of hydrogen peroxide.
as §1, with “PLP.” for “PLP. Kinetic reactions were incubated with a range of amino acid substrate concentrations (1 μM-4 mM) at 30° C. for 30 minutes prior to quenching with 100 μL of 0.8 M formic acid.”, “To resolve chromatographically L-tyrosine, tyrosol and 4-HPAAA, compounds were separated through the use of an isocratic mobile phase containing 50 mM monopotassium phosphate pH 4.6, 15% (v/v) acetonitrile and 0.5 mM octyl sulfate.” left out

The values below come from patent publication US12385055B2, “Compositions and methods for production of salidroside, icariside D2, and precursors of salidroside and icariside D2” (Whitehead Institute for Biomedical Research, priority 2017, dated 2025).

`N[C@@H](Cc1ccccc1)C(=O)O` [L-phenylalanine]: in series [1], the “substrate preference (Michaelis-Menten kinetics, in words)” value is given as “much less preferred substrates”.
On the same count and under the same terms, with `N[C@@H](Cc1c[nH]c2ccccc12)C(=O)O` [L-tryptophan] the entry was “much less preferred substrates”.

B1: Rhodiola rosea RrT8GT (RrUGT33), tyrosol:UDP-glucose 8-O-glucosyltransferase, SEQ ID NO: 20 (Rhodiola rosea) (protein)
chain: MSLIEKPLTAIETREKPHAVCIPYPAQGHINPMMQLAKLLHHSGFHITFVHTEYNYDRLVKSQGSACVAGLPDFRFEAIPDGLPSTNGDVTQDIPLLSSSTSKTCLKPFKELLKRLQDKCKELPDDVPPLSCIVSDAAMSFTIDASEEFGVPIALLWTASACGFLGYTHYPYLIDRGVIPLKDESQLTNGYLDMSIDGIPCMEGIRLRDLPSFLRTTDLDDMMFSYILHEIKQVSRGSAIILNTFEALDHDVLDSLSKIYQNVILPVGPLHVSLNKIPKHYPLQSLSSNLWKDDTDCIPWLSSKASKSVIYVNFGSITTVSPKQIVEFAWGLANSKHPFLWIIRPDLVAGEASIIPQDFMDETKGRGLLAGWCDQELVLNHPSIGGFLTHCGWNSIIESISAGVPTVCWPFFAEQQTNCWFACKKWCIGMEMHTDVKRDEVDKLLRELMEGDKGEELKRKATNWKRLAEEAVSSTGLSTLNFRTLVNQVLLSKTKHIR
As to B1, in series [2], the Km (usually the concentration of substrate that gives half-maximal velocity) worked out at 1.37 ± 0.05 mM; the kcat – broadly, the number of substrate molecules converted per active site and unit of time at saturation – was determined as 576.2 ± 5.68 s⁻¹; the kcat/Km (commonly the second-order rate constant that governs catalysis at low substrate concentration) came to 421000 M⁻¹ s⁻¹.

B2: PsTyDC: Papaver somniferum tyrosine decarboxylase, tested as control (protein, UniProt O82415 1-512, looked up)
Tyrosine decarboxylase: MGSLPTNNLESISLCSQNPLDPDEFRRQGHMIIDFLADYYKNVEKYPVRSQVEPGYLKKRLPESAPYNPESIETILEDVTNDIIPGLTHWQSPNYFAYFPSSGSIAGFLGEMLSTGFNVVGFNWMSSPAATELESIVMNWLGQMLTLPKSFLFSSDGSSGGGGVLQGTTCEAILCTLTAARDKMLNKIGRENINKLVVYASDQTHCALQKAAQIAGINPKNVRAIKTSKATNFGLSPNSLQSAILADIESGLVPLFLCATVGTTSSTAVDPIGPLCAVAKLYGIWVHIDAAYAGSACICPEFRHFIDGVEDADSFSLNAHKWFFTTLDCCCLWVKDSDSLVKALSTSPEYLKNKATESKQVIDYKDWQIALSRRFRSMKLWLVLRSYGVANLRTFLRSHVKMAKHFQGLIGMDNRFEIVVPRTFAMVCFRLKPTAIFKQKIVDNDYIEDQTNEVNVKLLESVNASGKIYMTHAVVGGVYMIRFAVGATLTEERHVTGAWKVVQEHTDAILGA
Consider B2, for which, in series [3], the “metabolites produced on expression of the enzyme alone” value was “no measurable production of tyrosol glycosides”.

B3: Rhodiola rosea Rr4HPAAS, 4-hydroxyphenylacetaldehyde synthase, GenBank MF674522, SEQ ID NO: 2 (Rhodiola rosea) (protein)
chain: MGSLPSPNDPSNTFNPMDLTELSTESKLVVDFITQYYQTLETRPVQPRVKPGFLTGQLPDKAPFHGESMEVILSDVNEKIVPGLTHWQSPNFHAYFPASSSNAGLLGELLCSGLSVIGFTWSSSPAATELENVVVDWMAKMLNLPSSFCFSGGGGGVLQANTCEAVLCTLAAARDKALNRVGDDQINKLVLYCSDQTHFTIHKGAKLIGIRSKNIKSITTKKENEFKLCPNDLRDAIRSDLEAGLVPFYVCGTIGTTALGVVDPIKELGKVAREFDLWLHVDGAYGGSACICPEFQHYLDGVDLVDSISMNAHKWLLSNLDCCFLWLQSPNALIESLAAEANFLKGGSEMVDYKDWQISLSRRFRAIKMWMVIRRYGVSNLIEHIRSDVSMAVRFEEMVAADDRFEIVFPRKFALVCFKLSSEKTPPGRDSELTRELMERVNSSGKAYLSGVQMGRIFFIRCVIGSSLTEERHVDNLWRLIQETAQSIVS
With B3, in series [4], the Km worked out at 0.42 ± 0.02 mM, the kcat was 4.92 ± 0.08 s⁻¹ and the kcat/Km came out at 11700 M⁻¹ s⁻¹. Also, in series [5], the Km worked out at 1.04 ± 0.10 mM. For the same molecule, the hydrogen peroxide production result in series [6] was “much higher activity”. Further, the “metabolites produced on expression of the enzyme alone” value in series [3] was “significant accumulation of both salidroside and icariside D2”.
